Laboratory results from the RNAGym collection of RNA variant scans (doi:10.7554/elife.80360).

B1: HDV Ribozyme (parent)
chain: GGCCGGCAUGGUCCCAGCCUCCUCGCUGGCGCCGGCUGGGCAACAUUCCGAGGGGACCGUCCCCUCGGUAAUGGCGAAUGGGACCCA

Variants of: B1
Assay: self-cleavage, relative activity (ratio to wild type); higher = more cleavage; co-transcriptional

Variant | self-cleavage
GGCCGGCAUGGCCCCAGCCUCCUCGCGGGCGCCGGCUGGGCAACAUUCCGAGGGGACCGUCCCCUCGGUAAUGGCGAAUGGGACCCA [U12C U27G] | 0.312
UGCCGGCAUGGUCCCAGCCUCCUCGCUGGCGCCGGCUGGGCAACAUUCCGGGGGGACCGUCCCCUCGGUAAUGGCGAAUGGGACCCA [G1U A51G] | 0.514
GGCCGGCAUGGUCCCAGCCUCCUCGCUGGCGCCGGCUGGGCAACAUUCCGAGGGGUCCGUCCCCUCGGUGAUGGCGAAUGGGACCCA [A56U A70G] | 1.07
CGCCGGCAUGGUCCCAGCCUCCUCGCUGGCGCCGGCUGGGCAACAUUCCGAGGGGACCGUCCCCUCGGUAAUGGCGAAUGGGACUCA [G1C C85U] | 0.266
GGCCGGCAUGGUCCCAGCCUCCUCGCUGUCGCCGGCUGGGCAACAUUCCGAGGGGAUCGUCCCCUCGGUAAUGGCGAAUGGGACCCA [G29U C57U] | 0.0911
GGCCGGCAUGGUCCCAGGCUCCUCGCUGGCGCCGGCUGGGCAACAUUCCGAGGGGACCGUCCCCUCGGAAAUGGCGAAUGGGACCCA [C18G U69A] | 0.0489
AGCCGGCAUGGUCCCAGCCUCCUCGCUUGCGCCGGCUGGGCAACAUUCCGAGGGGACCGUCCCCUCGGUAAUGGCGAAUGGGACCCA [G1A G28U] | 0.106
GGCCGGCAUGGCCCCAGCCUCCUCGCUGGCGCCGGCUGGGCAACAUUCCGAGGGGACCGUCCCCUCGAUAAUGGCGAAUGGGACCCA [U12C G68A] | 0.231
GGCCGGCAUGGUCCCAGCCUCCUCGCUGGCGCCGGCUGGGCAACAUUCCGAAGGGACCGUCCCCUCGGAAAUGGCGAAUGGGACCCA [G52A U69A] | 1.05
GUGCGGCAUGGUCCCAGCCUCCUCGCUGGCGCCGGCUGGGCAACAUUCCGAGGGGACCGUCCCCUCGGUAAUGGCGAAUGGGACCCA [G2U C3G] | 0.0222
GGCCGUCAUGGUCCCAGCCUCCUCGCUGGCGGCGGCUGGGCAACAUUCCGAGGGGACCGUCCCCUCGGUAAUGGCGAAUGGGACCCA [G6U C32G] | 0.798
CGCCGGCAUGGUCCCAGCCUCCUCGCUGGCGCCGGCUGGGCAACAUUCCGAGGGGACCGUCCCCUCGGUAAUGGCGAAUGGGACCUA [G1C C86U] | 0.262
GGCCGGCAUGGACCCAGCCUCCUCGCUGGCGCCGGCUGGGCAACAUUCCGAGGGGACCGUCCCCUCGGUAAUGGCGAAAGGGACCCA [U12A U79A] | 0.0791
GGCCGGCAUGGUCCCAGCCUCCUCGCUGGCGCCGGCUGGGCAACAUUCGGAAGGGACCGUCCCCUCGGUAAUGGCGAAUGGGACCCA [C49G G52A] | 0.543
GGCCGGCAUGGUCCCAGCCUUCUCGCUGGCGCCGGCUGGGCAACAUUCCGAGGGGACCGUCCCCUCGGUAAUGGCGAAUGGGACCAA [C21U C86A] | 0.505
GGCCGGCAUGGUCCCAGCCUCCUCGCUGGCGCCGGCUGGGCAACAUUCCGAGGGGACCGUCCCCUCGGUAAUGGCGACUGGGACCCA [A78C] | 0.164
GGCCGGCAUGGUCCCAGCCUCCUCGCUGGCGCCGGCUGGGCAACGUUCCGAGGGGACCGUCCCCUCGGUAAUGGCGAAUGGGACUCA [A45G C85U] | 1.06
GGCCAGCAUGGUCCCAGCCUCCUCGCUGGCGCCGGCUGGGCAACAGUCCGAGGGGACCGUCCCCUCGGUAAUGGCGAAUGGGACCCA [G5A U46G] | 0.161
GGCCGGCAUGGUCCCAGCCUCCUCGCUGGCGCCGGCUGGGCAACAUUCCGAGGGGACCGUCCCCUCGGUAAUGGCGAAGGCGACCCA [U79G G81C] | 0.26
GGCCGGCAUGGUCCCAGCCUCCUCGCUGGCGCCGGCUGGGCAACAUUCCGAGGGGCCCGUCCCCUGGGUAAUGGCGAAUGGGACCCA [A56C C66G] | 0.99
GGCCGGCAUGGUCCCAGCCUCCUAGCUGGCGCCGGCUGGGCAACAUUCCGAGGGAACCGUCCCCUCGGUAAUGGCGAAUGGGACCCA [C24A G55A] | 0.684
GGCCGGCAUGGUCCCAGCCUCCUCGCUGGCGCCGGCUGGGCAACAUUCUGAGGGGACCGUCCCCCCGGUAAUGGCGAAUGGGACCCA [C49U U65C] | 0.902

Variant | self-cleavage
GGCCGGCAUGGUCCCAGCCUCCUCGCUGGCGCCGGCUGGGCAGCAUUCCGAGGGGACCGUCCCCUCGGAAAUGGCGAAUGGGACCCA [A43G U69A] | 0.623
GGCCGGCAUGGUCCCAGCCUCCUCGCUGGCGCCGGCUGGGCAACAUUCCGAGGGGACCGUCCCCUCGGCAAUGGCGAAUGGAACCCA [U69C G82A] | 0.246
GGCCGGCAUGGUCCCAGCCUCCUCGCUGGCGCCGGCUGGGCAACAUUCCGAGGGGACCGUCCCCUCGGUAAUGGGGAAUGGGACCCC [C75G A87C] | 0.073
GGCCGGCUUGGUCCCAGCCUCCUCGCUGGCGCCGGCUGGGCAACAUGCCGAGGGGACCGUCCCCUCGGUAAUGGCGAAUGGGACCCA [A8U U47G] | 0.831
GGCCGGCAUGGUCCCAGCCUCCUCGCUGGCGCCGGCUGGGCAACAUUCCGAGGGGACAGUCCCCUCGGUCAUGGCGAAUGGGACCCA [C58A A70C] | 1.04
GGCCGGCAUGGUCCCAGCCUCCUCGCUGGCGCCGGCUGGGUAACAUUCCGAGGGGACCGUCCCCUCGGUAAUGGCGAAUGGGACCCU [C41U A87U] | 1
GGCCGGCAUGGUCCCAGCCGCCUCGCUGGCGCCGGCUGGGCAACAUUCCGAGGGGACCGUCCCCUCGGUAAUGGCGAGUGGGACCCA [U20G A78G] | 0
GGCCGGCUUGGUCCCAGCCUCCUCGCUGGCGCCGGCUGGGCACCAUUCCGAGGGGACCGUCCCCUCGGUAAUGGCGAAUGGGACCCA [A8U A43C] | 0.453
GGCCGGCAUGGUCCCAGCCUCCUCGCUGGCGCCCGCUGGGCAACAGUCCGAGGGGACCGUCCCCUCGGUAAUGGCGAAUGGGACCCA [G34C U46G] | 0.0504
UGCCGGCAUGGUCCCAGCCUCCUCGCUGGCGCCGGCAGGGCAACAUUCCGAGGGGACCGUCCCCUCGGUAAUGGCGAAUGGGACCCA [G1U U37A] | 0.584
GGCCGGCAUGGUCCCAGCCUCCUCGCUGGCGCCGGCUGGGCAACAUUCCGAGGAGACCGUCCCCUCGGUAAUGGCGAAUAGGACCCA [G54A G80A] | 0.443
GGUCGGCAUGGUCCCAGCCUCCUCGCUGGCGCCGGCUGGGCAACAUUCCGAGGGGACCGUCCCCUCGGUAAUGGCGAAUGAGACCCA [C3U G81A] | 0.17
GGCCGGCAUGGUCCUAGCCUCCUCGCUGGCGCCGGCUGGGGAACAUUCCGAGGGGACCGUCCCCUCGGUAAUGGCGAAUGGGACCCA [C15U C41G] | 0.475
GGCCGGCAUGGUCCCAGCCUCCUCGCUGGCGCAGGCUGGGCAACAUACCGAGGGGACCGUCCCCUCGGUAAUGGCGAAUGGGACCCA [C33A U47A] | 0.0378
GGCCGGCAUGGUCCCAGCCUCCUCGCUGGCGCCCGCUGGGCAACAUUCCGAGGGGACCGUCGCCUCGGUAAUGGCGAAUGGGACCCA [G34C C62G] | 0.0639
GGCCGGCAUGGUGCCAGCUUCCUCGCUGGCGCCGGCUGGGCAACAUUCCGAGGGGACCGUCCCCUCGGUAAUGGCGAAUGGGACCCA [C13G C19U] | 0.0396
GGCCGGCAUGGUUCCAGCCUCCUCGCUGGCGCCGGCUGGGCAACAUUCCGAGGGCACCGUCCCCUCGGUAAUGGCGAAUGGGACCCA [C13U G55C] | 0.658
GGCCGGCAUGGUCCCAGCCUCCUCGCUGGCGACGGCUGGGCAACAGUCCGAGGGGACCGUCCCCUCGGUAAUGGCGAAUGGGACCCA [C32A U46G] | 0.138
GGCCGGCAUGGUCCCUGCCUCCUCGCUGGCGCCGGUUGGGCAACAUUCCGAGGGGACCGUCCCCUCGGUAAUGGCGAAUGGGACCCA [A16U C36U] | 0.631
GGCCGGGAUGGUCCCAGCCUCCUCGCUGGCGCAGGCUGGGCAACAUUCCGAGGGGACCGUCCCCUCGGUAAUGGCGAAUGGGACCCA [C7G C33A] | 0.196
GGCCGGCAUGGUCCCAGCCUCCUCGCUGGCGCCGGCUGGGCAACAUUCCGAUGGGACCGUCCCCUCGGUAAAGGCGAAUGGGACCCA [G52U U72A] | 0.496
GGCCGGCAUGGUCCCAGCCUUCUCGCUGGCGCCGGCUGGGCAACAUUCCGAGGGGACCGUACCCUCGGUAAUGGCGAAUGGGACCCA [C21U C61A] | 0.176

Variant | self-cleavage
GUCCGGCAUGGUCCCAGCCUCCUCGCUGGCGCCGGCUGGGCAACAUUCCGGGGGGACCGUCCCCUCGGUAAUGGCGAAUGGGACCCA [G2U A51G] | 0.0683
GGCCGGCAUGGUCCCGGCCUCCUCGCUGGCGCCGGCUGGGCAACAUUCCGAGGGGACCGUCCCCACGGUAAUGGCGAAUGGGACCCA [A16G U65A] | 0.974
GGCCGGCAUGGUCCCAGCCUCCUCGCUGGCGCCGGCUGGGCAACAUUCCGAAGGGACCGUCCCCACGGUAAUGGCGAAUGGGACCCA [G52A U65A] | 0.954
GGCCGGCAUGGUCCCAGCCUCCUCGCUGGCGCCGGCUGGGCAACAUUCCGAGGGGACCCUCCCCUCAGUAAUGGCGAAUGGGACCCA [G59C G67A] | 1.06
GGCCGGCAUGGUCCCAGCCUCCUCGCUGGCGCCGGCUGGGCAACAUUCCGAGGGGACCGUCCCUUCGGUAGUGGCGAAUGGGACCCA [C64U A71G] | 1.07
GGCCGGCAUGGUCCCAGCCUCCUCGCUGGCGCCGGCUGGGCAUCAUUCCGAGGGUACCGUCCCCUCGGUAAUGGCGAAUGGGACCCA [A43U G55U] | 0.619
GGCCGGCAUGGUCCCAGCCUCCUCGCUGGCGCCGGCUGGGCAGCAUUCCGAGGGGACUGUCCCCUCGGUAAUGGCGAAUGGGACCCA [A43G C58U] | 0.415
GGCCGGCAUGGUCCCAGCCUCCUCUCUGGCGCCGGCUGGGGAACAUUCCGAGGGGACCGUCCCCUCGGUAAUGGCGAAUGGGACCCA [G25U C41G] | 0.119
GGCCGGCAUGGUCCCAGCCUCCUCGCUGGCGCCGGCUGAGCAACAGUCCGAGGGGACCGUCCCCUCGGUAAUGGCGAAUGGGACCCA [G39A U46G] | 0.0923
GGCCGGCACGGCCCCAGCCUCCUCGCUGGCGCCGGCUGGGCAACAUUCCGAGGGGACCGUCCCCUCGGUAAUGGCGAAUGGGACCCA [U9C U12C] | 0.119
GCCCGGCAUGGUCCCAGCCUCCUCGCUGGCGCCGGCUGGGCAUCAUUCCGAGGGGACCGUCCCCUCGGUAAUGGCGAAUGGGACCCA [G2C A43U] | 0.0297
GGCCGGCAUGGUCCCAGCCUCCUCGCUGGCGCCGGCUGGGCAACAUUCCGCGGGGACCCUCCCCUCGGUAAUGGCGAAUGGGACCCA [A51C G59C] | 0.807
GGCCGGCAUGGUCCCAGCCUCCUCGCUGGCGCCGGCUGGGCAACAUUCCGAGGGGACCGUCCCCUCUGUAAUGGCGAGUGGGACCCA [G67U A78G] | 0.791
GGCGGGCAUGGUCCCAGCCUCCUCGCUGGCGCCGGCUGGGCAACAUUCCGAGGGGACCGUCCCCUCGGUAAUGGGGAAUGGGACCCA [C4G C75G] | 0.122
GGCCGGCAUGGUCCCAGCCUCCUCGCUGGCGCCGGCUGGGCAACAUUCCGAGGGGACCGUCCCCUCGGUAAUCGCCAAUGGGACCCA [G73C G76C] | 0.501
GGCAGGCAUGGUCCCAGCCUCCUCGCUGGCGCCGGCUGGGCAACAUUCCGAGGGGACCGUCCCCUCUGUAAUGGCGAAUGGGACCCA [C4A G67U] | 0.354
GGCCGGCAUGGUCCCAGCCUCCUCGCUGGCGCCGGCUGGGCAACAAUCCGAGGGGACUGUCCCCUCGGUAAUGGCGAAUGGGACCCA [U46A C58U] | 0.482
GGCCGGCAUGGUCCCAGCCUCCUCGCUGGCGUCGGCUGGGCAUCAUUCCGAGGGGACCGUCCCCUCGGUAAUGGCGAAUGGGACCCA [C32U A43U] | 0.491
GGCCGGCAUGGUCCCAGCCUCCUCGCUGGCGCUGGAUGGGCAACAUUCCGAGGGGACCGUCCCCUCGGUAAUGGCGAAUGGGACCCA [C33U C36A] | 0.151
GGCCGGCAUGGUCCCAGCCUCCUCGCUGGCGCCGACUGGGCAACCUUCCGAGGGGACCGUCCCCUCGGUAAUGGCGAAUGGGACCCA [G35A A45C] | 0.0378
